Experimental data taken from patent US12304939B2, “EGFR and C-met fibronectin type III domain binding molecules” (Janssen Biotech, Inc., priority 2012, dated 2025).

Assays:
NCI-H292 cells = experiment: NCI-H292 growth assay; type: cell-based, human; conditions: 120 hours, CellTiter-Glo
Protocol: (§1) Inhibition of EGFR-dependent cell growth was assessed by measuring viability of the EGFR over-expressing human tumor cell lines, NCI-H292 and NCI-H322 (American Type Culture Collection, cat. #CRL-1848 & #CRL-5806, respectively), following
(§2) exposure to EGFR-binding FN3 domains. […] Cells were treated by addition of 5 μL/well of phosphate-buffered saline (PBS) containing a concentration range of EGFR-binding FN3 domains. Controls were treated with 5 μL/well of PBS only or 25 mM ethylenediaminetetraacetic acid in PBS. […] Viable cells were detected by addition of 75 μL/well of CellTiter-Glo® reagent (Promega), followed by mixing on a plate shaker for 2 minutes, and incubation in the dark at room temperature for a further 10 minutes. Plates were read on a SpectraMax M5 plate reader (Molecular Devices) set to luminescence mode, with a read time of 0.5 seconds/well against a blank of medium only. Data were plotted as a percentage of PBS-treated cell growth against the logarithm of FN3 domain molar concentration.

NCI-H322 cells = experiment: NCI-H322 growth assay; type: cell-based, human; conditions: 120 hours, CellTiter-Glo
Protocol: as §1, §2

[1] = target: EGF binding to EGFR on A431 cells (Homo sapiens, UniProt P00533); experiment: A431 cell EGF competition assay; conditions: 30 ng/mL biotinylated EGF
Protocol: To better characterize the mechanism of EGFR binding, the ability of various identified FN3 domain clones to bind EGFR in an EGF-competitive manner was measured using A431 cells and run in parallel with the A431 binding assay screen. […] Biotinylated EGF (Invitrogen, cat. #E-3477) was added to each well for a final concentration of 30 ng/mL and incubated for 10 minutes at room temperature.
Bacterial lysates containing the FN3 domains were screened in the EGF competition assay described above.
Biotinylated EGF (Invitrogen, Cat #: E-3477) was added to each well to give a final concentration of 30 ng/mL and incubated for 10 minutes at room temperature.

EGFR = EGFR (Homo sapiens, UniProt P00533); experiment: Phospho-EGFR assay: inhibition of EGF-stimulated EGFR phosphorylation (Tyr1173) in A431 cells; type: cell-based; conditions: 50 ng/mL EGF
[2] = target: T1, recombinant EGFR extracellular domain (EGFR-Fc) (Homo sapiens, UniProt P00533); experiment: EGFR-Fc affinity by surface plasmon resonance (Proteon); type: binding; conditions: SPR, 1:1 Langmuir fit; read-out: EGFR-Fc Affinity
T1 construct: purchased R&D Systems
Protocol: Select EGFR-binding FN3 domains were screened to identify those with slow off-rates (koff) in binding to EGFR-Fc on a ProteOn XPR-36 instrument (Bio-Rad) to facilitate selection of high affinity binders. Goat anti-human Fc IgG (R&D systems), at a concentration of 5 μg/mL, was directly immobilized via amine coupling (at pH 5.0) on all 6 ligand channels in horizontal orientation on the chip with a flow rate of 30 μL/min in PBS containing 0.005% Tween-20. The immobilization densities averaged about 1500 Response Units (RU) with less than 5% variation among different channels. EGFR-Fc was captured on the anti-human Fc IgG surface to a density around 600 RU in vertical ligand orientation. All tested FN3 domains were normalized to a concentration of 1 μM and tested for their binding in horizontal orientation. […] The dissociation phase was monitored for 10 minutes at a flow rate of 100 μL/min. […]
Binding affinity of selected EGFR-binding FN3 domains to recombinant EGFR extracellular domain was further characterized by surface Plasmon resonance methods using a Proteon Instrument (BioRad). […] The dissociation phase for all concentrations of each EGFR-binding FN3 domain was monitored at a flow rate of 100 μL/min for 30 minutes (for those with koff ˜10^−2 s^−1 from off-rate screening), or 1 hour (for those with koff ˜10^−3 s^−1 or slower). […]

EGFR on A431 cells = EGFR on A431 cells (Homo sapiens, UniProt P00533); experiment: A431 cell binding assay; conditions: purified FN3 domains

IC50 (NCI-H292 cells): 44 nM
IC50 (NCI-H322 cells): 39 nM
IC50 [1]: 7.1 nM
IC50 (EGFR): 295 nM
Kd [2]: 2.51 nM
EC50 (EGFR on A431 cells): 8.6 nM
B1: P54AR4-47: EGFR-binding FN3 domain, SEQ ID NO: 20 (protein)
chain: LPAPKNLVVSEVTEDSLRLSWGYNGDHFDSFLIQYQESEKVGEAINLTVPGSERSYDLTGLKPGTEYTVSIYGVHNVYKDTNMRGLPLSAEFTT
modifications: EGFR binding FN3 domain
